Source: patent US20230287598A1 (TAURUS BIOSCIENCES, published 2023)

Assays:
CXCR1 [1] = target: T1, CXCR1 (UniProt P25024 1-350, limits assumed); assay: cell-based or functional assay
T1 sequence (looked up): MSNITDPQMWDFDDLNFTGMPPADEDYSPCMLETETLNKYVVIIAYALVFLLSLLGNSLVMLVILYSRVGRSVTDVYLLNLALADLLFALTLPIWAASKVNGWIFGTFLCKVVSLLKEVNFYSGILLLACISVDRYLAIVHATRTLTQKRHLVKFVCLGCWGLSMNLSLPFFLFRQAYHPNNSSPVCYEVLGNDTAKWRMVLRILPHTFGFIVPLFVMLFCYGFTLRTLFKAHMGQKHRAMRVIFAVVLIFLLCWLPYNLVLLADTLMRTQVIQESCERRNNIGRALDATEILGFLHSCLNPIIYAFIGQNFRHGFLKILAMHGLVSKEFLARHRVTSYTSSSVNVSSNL

CXCR1 [2] = target: T2, CXCR1 (UniProt P25024 1-350, limits assumed); assay: flow cytometry, supernatant at 5 nM IgG
T2 construct: whole, on cells; DiscoveRx PathHunter cell line; any reporter tag on the receptor is not described; also called CXCR1 receptor; CXCR1-U2OS
T2 sequence (looked up): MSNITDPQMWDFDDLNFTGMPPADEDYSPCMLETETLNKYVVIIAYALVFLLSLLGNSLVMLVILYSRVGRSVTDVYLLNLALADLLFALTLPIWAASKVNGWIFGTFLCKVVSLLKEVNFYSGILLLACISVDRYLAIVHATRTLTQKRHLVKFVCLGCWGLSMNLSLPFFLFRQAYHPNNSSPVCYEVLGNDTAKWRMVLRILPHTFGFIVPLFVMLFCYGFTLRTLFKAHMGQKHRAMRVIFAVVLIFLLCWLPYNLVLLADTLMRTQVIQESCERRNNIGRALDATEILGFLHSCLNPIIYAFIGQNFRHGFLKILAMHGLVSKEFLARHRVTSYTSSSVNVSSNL

B1: VH4-34 MutE IL-8 5R6E31D32K50S (antibody, human IgG1)
VH: QVQLREWGAGLLKPSETLSLTCAVYGGSFSDKYWSWIRQPPGKGLEWIGSINHSGSTNYNPSLKSRVTISVDTSKNQFSLKLSSVTAADTAVYYCTSVHQETKKYQSPRSAKELRCQCIKTYSKPFHPKFIKELRVIESGPHCANTEIIVKLSDGRELCLDPKENWVQRVVEKFLKRAENSGSGSYTYNYEWHVDVWGQGLLVTVSS
light: QAVLNQPSSVSGSLGQKVTISCSGSSSNIGNNYVSWYQQLPGTAPRTLIYGDTKRPSGIPDRFSGSKSGTSATLGITGLQTGDEADYYCASAEDSSSNAVFGSGTTLTVLGQPKAAPSVTLFPPSSEELQANKATLVCLISDFYPGAVTVAWKADSSPVKAGVETTTPSKQSNNKYAASSYLSLTPEQWKSHRSYSCQVTHEGSTVEKTVAPTECS
How did the “CXCR1 activation, luminescence, 0.1 nM IL-8 domains” value (CXCR1 [1]) turn out when B1 was run?
The value was 4060 luminescence.

What about the “CXCR1 activation, luminescence, 0.5 nM IL-8 domains” value (CXCR1 [1]) of the same binder?
The value was 5300 luminescence.

And the “CXCR1 activation, luminescence, 2.2 nM IL-8 domains” value (CXCR1 [1])?
Its value is 10300 luminescence.

What about the “CXCR1 activation, luminescence, 9.9 nM IL-8 domains” value (CXCR1 [1]) of the same binder?
Its value is 17100 luminescence.

And the “CXCR1 activation, luminescence, 44 nM IL-8 domains” value (CXCR1 [1])?
Its value is 23300 luminescence.

And the “CXCR1 activation, luminescence, 200 nM IL-8 domains” value (CXCR1 [1])?
Its value is 22300 luminescence.

B2: VH4-34+CDR3-IL8 / VL1-51 S2A, T5N, P8S, A12G, A13S, P14L, K46R, L47T, D51G, N52D, N53T IgG (antibody)
VH: QVQLQQWGAGLLKPSETLSLTCAVYGGSFSGYYWSWIRQPPGKGLEWIGEINHSGSTNYNPSLKSRVTISVDTSKNQFSLKLSSVTAADTAVYYCTSVHQETKKYQSPRSAKELRCQCIKTYSKPFHPKFIKELRVIESGPHCANTEIIVKLSDGRELCLDPKENWVQRVVEKFLKRAENSGSGSYTYNYEWHVDVWGQGLLVTVSSAS
light: QAVLNQPSSVSGSLGQKVTISCSGSSSNIGNNYVSWYQQLPGTAPRTLIYGDTKRPSGIPDRFSGSKSGTSATLGITGLQTGDEADYYCASAEDSSSNAVFGSGTTLTVLGQPKAAPSVTLFPPSSEELQANKATLVCLISDFYPGAVTVAWKADSSPVKAGVETTTPSKQSNNKYAASSYLSLTPEQWKSHRSYSCQVTHEGSTVEKTVAPTECS
notes: nt HC 430, LC 486
For B2, which “Specific Binding (CXCR1-Cell median AFU / Parental Cell median AFU)” value (CXCR1 [2]) is on record?
Its value is 12.

B3: VH4-34+CDR3-IL8_CDR2 Cow / VL1-51 S2A, T5N, P8S, A12G, A13S, P14L, K46R, L47T, D51G, N52D, N53T IgG (antibody)
VH: QVQLQQWGAGLLKPSETLSLTCAVYGGSFSGYYWSWIRQPPGKGLEWLGSIDTGGNTGYNPSLKSRVTISVDTSKNQFSLKLSSVTAADTAVYYCTSVHQETKKYQSPRSAKELRCQCIKTYSKPFHPKFIKELRVIESGPHCANTEIIVKLSDGRELCLDPKENWVQRVVEKFLKRAENSGSGSYTYNYEWHVDVWGQGLLVTVSSAS
light: QAVLNQPSSVSGSLGQKVTISCSGSSSNIGNNYVSWYQQLPGTAPRTLIYGDTKRPSGIPDRFSGSKSGTSATLGITGLQTGDEADYYCASAEDSSSNAVFGSGTTLTVLGQPKAAPSVTLFPPSSEELQANKATLVCLISDFYPGAVTVAWKADSSPVKAGVETTTPSKQSNNKYAASSYLSLTPEQWKSHRSYSCQVTHEGSTVEKTVAPTECS
notes: nt HC 433, LC 486
B3 was tested. Which “Specific Binding (CXCR1-Cell median AFU / Parental Cell median AFU)” value (CXCR1 [2]) did it give?
Its value is 3.

B4: VH4-34+CDR3-IL8_CDR2 E50S / VL1-51 S2A, T5N, P8S, A12G, A13S, P14L IgG (antibody)
VH: QVQLQQWGAGLLKPSETLSLTCAVYGGSFSGYYWSWIRQPPGKGLEWIGSINHSGSTNYNPSLKSRVTISVDTSKNQFSLKLSSVTAADTAVYYCTSVHQETKKYQSPRSAKELRCQCIKTYSKPFHPKFIKELRVIESGPHCANTEIIVKLSDGRELCLDPKENWVQRVVEKFLKRAENSGSGSYTYNYEWHVDVWGQGLLVTVSSAS
light: QAVLNQPSSVSGSLGQKVTISCSGSSSNIGNNYVSWYQQLPGTAPKLLIYDNNKRPSGIPDRFSGSKSGTSATLGITGLQTGDEADYYCASAEDSSSNAVFGSGTTLTVLGQPKAAPSVTLFPPSSEELQANKATLVCLISDFYPGAVTVAWKADSSPVKAGVETTTPSKQSNNKYAASSYLSLTPEQWKSHRSYSCQVTHEGSTVEKTVAPTECS
For B4, which “Specific Binding (CXCR1-Cell median AFU / Parental Cell median AFU)” value (CXCR1 [2]) is on record?
The value was 4.

B5: VH4-34+CDR3-IL8_CDR2 Cow / VL1-51 S2A, T5N, P8S, A12G, A13S, P14L, D51G, N52D, N53T IgG (antibody)
VH: QVQLQQWGAGLLKPSETLSLTCAVYGGSFSGYYWSWIRQPPGKGLEWLGSIDTGGNTGYNPSLKSRVTISVDTSKNQFSLKLSSVTAADTAVYYCTSVHQETKKYQSPRSAKELRCQCIKTYSKPFHPKFIKELRVIESGPHCANTEIIVKLSDGRELCLDPKENWVQRVVEKFLKRAENSGSGSYTYNYEWHVDVWGQGLLVTVSSAS
light: QAVLNQPSSVSGSLGQKVTISCSGSSSNIGNNYVSWYQQLPGTAPKLLIYGDTKRPSGIPDRFSGSKSGTSATLGITGLQTGDEADYYCASAEDSSSNAVFGSGTTLTVLGQPKAAPSVTLFPPSSEELQANKATLVCLISDFYPGAVTVAWKADSSPVKAGVETTTPSKQSNNKYAASSYLSLTPEQWKSHRSYSCQVTHEGSTVEKTVAPTECS
notes: nt HC 433, LC 444
For B5, which “Specific Binding (CXCR1-Cell median AFU / Parental Cell median AFU)” value (CXCR1 [2]) is on record?
The value was 4.
